According to publication PMC4738263 (Scientific Reports, 2016):

B1: His-tag-attached wild-type Hydrogenobacter thermophilus cytochrome c552, holo protein [modified: heme c attached (holo protein); heme c attached (holo protein)] [Hydrogenobacter thermophilus] / itself (parent)
chain: NEQLAKQKGCMACHDLKAKKVGPAYADVAKKYAGRKDAVDYLAGKIKKGGSGVWGSVPMPPQNVTDAEAKQLAQWILSIK

Variants of: B1
Test: Ni affinity chromatography (peak areas)
Settings: with itself, protein obtained from E. coli cells, read off a plot

Row | Variant | screen value (parent: 27) | screen value (parent: 68) | screen value
1 | NEQLFKQKGCVACHDLKAKKVGPAYADVAKKYAGRKDAVDYLAGKIKKGGSGVWGSVPMPPQNVTDAEAKQLAQWILSIK [chain 1 A5F M11V] | 14% | 83% | 3%
2 | NEQLFKQKGCVACHDLKAKKVGPAYADVAKKFAGRKDAVDELAGKIKKGGSGVWGSVPMPPQNVTDAEAKQLAQWVLSIK [chain 1 A5F M11V Y32F Y41E I76V] | 1.8% | 92% | 6.2%

Continued, values first:

Row | screen value (parent: 27) | screen value (parent: 68) | screen value | Variant
3 | 11% | 76% | 13% | NEQLAKQKGCMACHDLKAKKVGPAYADVAKKFAGRKDAVDELAGKIKKGGSGVWGSVPMPPQNVTDAEAKQLAQWILSIK [chain 1 Y32F Y41E]
4 | 19% | 75% | 5.5% | NEQLAKQKGCMACHDLKAKKVGPAYADVAKKYAGRKDAVDYLAGKIKKGGSGVWGSVPMPPQNVTDAEAKQLAQWVLSIK [chain 1 I76V]
